# Results published in the supplement of paper PMC7125110.
# ± gives the standard error. This sample holds only a part of the variants without activity.
# B1: glmS ribozyme (parent)
# chain: AUAAAAGCGCCAGAACUACAGAAAUGUAGUUGACGAGGAGGAGGUUUAUCGAAUUUUCGGCGGAUGCCUCCAAA
# How the values were obtained:
# Settings in all cases: with glucosamine-6-phosphate
# glucosamine-6-phosphate [1] = variants of: B1; experiment: self-cleavage kobs at 40 uM GlcN6P; higher = faster cleavage; RNA array
# How it was run: (§1)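 Barcoded ribozyme variants, transcribed in situ by E. coli RNA polymerase on sequenced MiSeq chips, were followed via a hybridised Cy3 probe at 37 °C. Glucosamine-6-phosphate ranged from 40 μM to 10 mM in HEPES/KCl/Mg(OAc)2 buffer. kobs came from decay fits to per-tile medians, and kcat and KM from weighted Michaelis–Menten fits.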
# glucosamine-6-phosphate [2] = variants of: B1; experiment: self-cleavage kobs at 10000 uM GlcN6P; higher = faster cleavage; RNA array
# How it was run: as §1
# glucosamine-6-phosphate [3] = variants of: B1; experiment: self-cleavage kobs at 160 uM GlcN6P; higher = faster cleavage; RNA array
# How it was run: as §1
# glucosamine-6-phosphate [4] = variants of: B1; experiment: self-cleavage kobs at 2500 uM GlcN6P; higher = faster cleavage; RNA array
# How it was run: as §1
# glucosamine-6-phosphate [5] = variants of: B1; experiment: self-cleavage kobs at 640 uM GlcN6P; higher = faster cleavage; RNA array
# How it was run: as §1
Variant,self-cleavage kobs at 40 uM GlcN6P (glucosamine-6-phosphate [1]) [s⁻¹],self-cleavage kobs at 10000 uM GlcN6P (glucosamine-6-phosphate [2]) [s⁻¹],self-cleavage kobs at 160 uM GlcN6P (glucosamine-6-phosphate [3]) [s⁻¹],self-cleavage kobs at 2500 uM GlcN6P (glucosamine-6-phosphate [4]) [s⁻¹],self-cleavage kobs at 640 uM GlcN6P (glucosamine-6-phosphate [5]) [s⁻¹]
C10U A15U G44U U46G G63U A64G,< 1e-05,< 1e-05,,,
U57G G63U,< 1e-05,< 1e-05,< 1e-05,< 1e-05,
A6U G9A U65G C70A,< 1e-05,,,,
G7A A12C U30G,< 1e-05,,,,
A12C G32A A48G,< 1e-05,,,,
G41A U45C C70U,9.09e-05 ± 2e-05,0.00358 ± 0.00079,,0.00174 ± 0.00052,
C11G U45G,< 1e-05,< 1e-05,< 1e-05,< 1e-05,< 1e-05
C8A G29C,< 1e-05,< 1e-05,< 1e-05,< 1e-05,< 1e-05
G44U C68A,< 1e-05,< 1e-05,< 1e-05,,< 1e-05
C11U G60U,< 1e-05,< 1e-05,,< 1e-05,< 1e-05
C11G G43C,< 1e-05,< 1e-05,< 1e-05,,< 1e-05
G37U G41U,< 1e-05,< 1e-05,< 1e-05,< 1e-05,
A42U G62C,< 1e-05,< 1e-05,,,< 1e-05
G43A A48U,< 1e-05,< 1e-05,< 1e-05,< 1e-05,< 1e-05
G44C U55A,< 1e-05,,< 1e-05,,< 1e-05
G41A C61U C68A C70G C71A,< 1e-05,,,,
C61U C67G C68G,4.73e-05 ± 1.6e-05,,,,
A1C U2A A3U G7A C8G G9C C10G A12C G13A A14G,6.43e-05 ± 1.4e-05,0.00344 ± 0.00044,,,
G35U A64C,< 1e-05,< 1e-05,< 1e-05,< 1e-05,< 1e-05
C8U G9U U30G A64C,< 1e-05,< 1e-05,,,
A14G U30G,0.001 ± 0.00014,0.0807 ± 0.027,0.00212 ± 0.00046,0.0179 ± 0.0054,0.00706 ± 0.0011
